# According to PMC2873993, “Comparative Therapeutic Effects of Velaglucerase Alfa and Imiglucerase in a Gaucher Disease Mouse Model” (PLoS ONE, 2010):
# Tests used:
# [1] = GCase activity assay with NBD-GC substrate; type: biochemical; settings: mean ± SE, n = 10
# Procedure: Vela and Imig were compared for kinetic properties as described. Briefly, the standard GCase activity assay contained final concentrations of 50 mM citrate/phosphate, pH 5.5, 0.25% TC, 0.25% TX, and 4 mM 4MU-Glc in 200 µl. The reactions were stopped after incubation (30–60 min, 37°C) using 0.9 M ethylenediamine, pH 11.0 (100 µl). Standard curves for 4-MU fluorescence yield were generated for each assay with Ex/Em 460/515 nm (Molecular Dynamics SpectraMax GeminXS spectrofluorometer). […] For the reversible competitive inhibitors, Ki was calculated from IC50 = Ki (1+ [I]/[Km]). The IC50 or Ki values for various inhibitors (dNM and its derivatives, CBE, CS, IFG, DNPFG) were determined using 4MU-Glc as substrate. Activities with the NBD-GC substrate were as described. Enzyme assays with saposin C (0–500 nM/0.5 µM BPS) and BPS (0–2 µM) were as described, [40]. Saposin C was expressed in E. coli and purified as described. […] Protease susceptibilities of the two GCases were evaluated by cathepsin D (1–2 µM) digestion in 25 mM sodium acetate, pH 4.8, 50 mM NaCl, 1.25 mM EDTA, 1.25 mM DTT using 200 ng of Vela or Imig at 37°C for 4 h. […] The amounts of intact enzyme were determined from density measurements on immunoblots and were compared to the initial amounts. […]
# [2] = Quantification of functional active sites with single turnover substrate DNPFG; type: biochemical
# Procedure: Catalytic activities of Vela and Imig were analyzed with 4MU-Glc and GC substrates. Vela had ∼6–10% reproducibly greater activity compared to Imig (Table 1). The functional active sites of these two enzymes were quantified using the single turnover substrate DNPFG, and consistent with the hydrolytic activity, ∼5–7% more functional active sites were quantified with Vela than with Imig (Table 1).
# Vela and Imig were compared for kinetic properties as described. Briefly, the standard GCase activity assay contained final concentrations of 50 mM citrate/phosphate, pH 5.5, 0.25% TC, 0.25% TX, and 4 mM 4MU-Glc in 200 µl. The reactions were stopped after incubation (30–60 min, 37°C) using 0.9 M ethylenediamine, pH 11.0 (100 µl). Standard curves for 4-MU fluorescence yield were generated for each assay with Ex/Em 460/515 nm (Molecular Dynamics SpectraMax GeminXS spectrofluorometer). […] For the reversible competitive inhibitors, Ki was calculated from IC50 = Ki (1+ [I]/[Km]). The IC50 or Ki values for various inhibitors (dNM and its derivatives, CBE, CS, IFG, DNPFG) were determined using 4MU-Glc as substrate. Activities with the NBD-GC substrate were as described. Enzyme assays with saposin C (0–500 nM/0.5 µM BPS) and BPS (0–2 µM) were as described, [40]. Saposin C was expressed in E. coli and purified as described. For thermostability assessments, equal amounts of Vela and Imig activities were added to 50 mM citrate/phosphate, pH 7.4, with or without human/mouse serum, and incubated for 0–240 min at 25 or 37°C. The pH optimum profiles were developed using 50 mM citrate/phosphate, pH 4.4–7.2. Protease susceptibilities of the two GCases were evaluated by cathepsin D (1–2 µM) digestion in 25 mM sodium acetate, pH 4.8, 50 mM NaCl, 1.25 mM EDTA, 1.25 mM DTT using 200 ng of Vela or Imig at 37°C for 4 h. All assays were conducted in triplicate and repeated at least twice. The amounts of intact enzyme were determined from density measurements on immunoblots and were compared to the initial amounts. […]
# [3] = Activation of GCase by BPS in detergent-free system; type: biochemical
# Procedure: Activation of Vela and Imig by the negatively charged lipid, BPS, and saposin C was determined in a detergent-free system with varying concentrations of either agent. The activities of both enzymes increased by 5- to 6-fold or 15- to 17-fold with saposin C (0 to 500 nM) or BPS (0 to 2 µM), respectively. […] Similarly, in the absence of saposin C, both enzymes reacted maximal activation with 0.5 µM of BPS. No significant differences were found in these responses (p = 0.5875–0.8473).
# Vela and Imig were compared for kinetic properties as described. Briefly, the standard GCase activity assay contained final concentrations of 50 mM citrate/phosphate, pH 5.5, 0.25% TC, 0.25% TX, and 4 mM 4MU-Glc in 200 µl. The reactions were stopped after incubation (30–60 min, 37°C) using 0.9 M ethylenediamine, pH 11.0 (100 µl). Standard curves for 4-MU fluorescence yield were generated for each assay with Ex/Em 460/515 nm (Molecular Dynamics SpectraMax GeminXS spectrofluorometer). […] For the reversible competitive inhibitors, Ki was calculated from IC50 = Ki (1+ [I]/[Km]). The IC50 or Ki values for various inhibitors (dNM and its derivatives, CBE, CS, IFG, DNPFG) were determined using 4MU-Glc as substrate. Activities with the NBD-GC substrate were as described. Enzyme assays with saposin C (0–500 nM/0.5 µM BPS) and BPS (0–2 µM) were as described, [40]. Saposin C was expressed in E. coli and purified as described. For thermostability assessments, equal amounts of Vela and Imig activities were added to 50 mM citrate/phosphate, pH 7.4, with or without human/mouse serum, and incubated for 0–240 min at 25 or 37°C. The pH optimum profiles were developed using 50 mM citrate/phosphate, pH 4.4–7.2. Protease susceptibilities of the two GCases were evaluated by cathepsin D (1–2 µM) digestion in 25 mM sodium acetate, pH 4.8, 50 mM NaCl, 1.25 mM EDTA, 1.25 mM DTT using 200 ng of Vela or Imig at 37°C for 4 h. All assays were conducted in triplicate and repeated at least twice. The amounts of intact enzyme were determined from density measurements on immunoblots and were compared to the initial amounts. The ratios of intact enzyme with and without cathepsin D were used as indicators of the enzyme's proteolytic susceptibility.
# 9 V/null mice [4] = test: GC levels in liver, spleen and lung after weekly enzyme injections; type: in vivo, mouse; settings: for reduction of GC levels in spleen: all three dosing groups
# Excerpt: (§1) Mice were sacrificed one week after the last injection, and sera and organs were collected for serologic studies, GCase activities, GC levels, and quantification of storage cells. At one week after the last injection, the GCase activities in liver, spleen, and lung had returned to background levels (not shown).
# (§2) Mice were anesthetized with isoflurane.
# GC levels in liver, lung, and spleen from 9 V/null and WT mice were quantified by LC/MS-MS (Lipidomic Core, University of South Carolina). The GC levels were normalized to protein in the same lysates used for GCase activity and expressed as the percentage change relative to the GC levels of matched samples from saline-injected mice. WT lysates were used as a reference. The Student's t-test was used for statistical comparisons.
# 9 V/null mice [5] = test: Storage cell quantification in liver and lung; type: in vivo, mouse
# Excerpt: as §1, §2
# Duplicate tissue sections were fixed in 10% formalin for hematoxylin and eosin (H&E) staining and in 4% paraformaldehyde-PBS, pH 7.4 for immunohistochemistry with CD68 antibody and examined using a Zeiss microscope equipped with SPOT Advance software (SPOT Diagnostic Instruments, Inc.). […] Mice (n = 6–14) in the Vela-, Imig-, or saline-treated groups were used, and the resultant data were analyzed using the Student's t-test.
# 9 V/null mice [6] = test: Mouse anti-human GCase IgG ELISA
# [7] = Serum GCase activity, CRIM and CRIM-SA after i.v. bolus; settings: for Recovery of injected activity in serum: 60 U/kg bolus, peak 2 min, % ± SE
# 9 V/null mice [8] = test: Total serum IgE ELISA in mice that died after injection; settings: mice that died after 4 or 5 injections of 60 U/kg/wk, n = 3
# [9] = Tissue GCase activity, CRIM and CRIM-SA (liver, spleen, lung) after i.v. bolus; settings: for Recovery of injected activity in liver / Recovery of injected activity in lung / Recovery of injected activity in spleen: 60 U/kg bolus, % ± SE; for peak liver activity relative to WT: 20 min
# [10] = dose dependent, 5, 15 or 60 U/kg/wk, abstract
# [11] = 5-wk 9 V/null mice, peak 20 min
# [12] = 5-wk 9 V/null mice, 60 U/kg i.v.
# [13] = 20-wk 9 V/null mice, peak 20 min
# [14] = 20-wk 9 V/null mice, 60 U/kg i.v.
molecule,measurement,setting,value
"velaglucerase alfa (protein, N-linked oligosaccharides with higher α-mannosyl content (predominant number of mannoses is 9)) ARPCIPKSFGYSSVVCVCNATYCDSFDPPTFPALGTFSRYESTRSGRRMELSMGPIQANHTGTGLLLTLQPEQKFQKVKGFGGAMTDAAALNILALSPPAQNLLLKSYFSEEGIGYNIIRVPMASCDFSIRTYTYADTPDDFQLHNFSLPEEDTKLKIPLIHRALQLAQRPVSLLASPWTSPTWLKTNGAVNGKGSLKGQPGDIYHQTWARYFVKFLDAYAEHKLQFWAVTAENEPSAGLLSGYPFQCLGFTPEHQRDFIARDLGPTLANSTHHNVRLLMLDDQRLLLPHWAKVVLTDPEAAKYVHGIAVHWYLDFLAPAKATLGETHRLFPNTMLFASEACVGSKFWEQSVRLGSWDRGMQYSHSIITNLLYHVVGWTDWNLALNPEGGPNWVRNFVDSPIIVDITKDTFYKQPMFYHLGHFSKFIPEGSQRVGLVASQKNDLDAVALMHPDGSAVVVVLNRSSKDVPLTIKDPAVGFLETISPGYSIHTYLWRRQ","GCase activity, NBD-GC",[1],"1,321,057±67,237 nmole/h/mg"
same,more functional active sites than Imig,[2]; DNPFG,5–7%
same,"Active sites, 2,4-DNPFG","[2]; mole ratio of 2,4-DNP released and enzyme protein, mean ± SE, n = 8",97.4±0.6%
same,increase of activity with BPS,"[3]; BPS 0 to 2 µM, detergent-free",15- to 17 fold
same,BPS concentration of maximal activation,[3]; in the absence of saposin C,0.5 µM
same,GC lipid levels in lung,9 V/null mice [4]; 5 and 15 U/kg/wk,unchanged
same,decrease of GC levels in liver,"9 V/null mice [4]; 5 or 15 U/kg/wk, week 4 or 8, compared to saline-injected controls",50–70%
same,reduction of GC levels in liver,9 V/null mice [4]; 15 U/kg/wk (before 8 wks),~66%
same,decrease of GC in lung (suggested trend),"9 V/null mice [4]; 60 U/kg/wk, 8 wks, variable",~10%
same,decrease of GC levels in liver,"9 V/null mice [4]; 60 U/kg/wk, week 4",~85%
same,reduction of GC levels in spleen,9 V/null mice [4]; 4 wks,10–15%
same,reduction of GC levels in spleen,9 V/null mice [4]; 8 wks,20–30%
same,reduction of GC levels and storage cell numbers in livers,9 V/null mice [4]; [10],60–95%
same,reduction of GC levels and storage cell numbers in spleens,9 V/null mice [4]; [10],10–30%
same,numbers of storage cells in lungs (CD68),9 V/null mice [5]; any dose,not different from saline control
same,difference in cellular clearance compared to Imig,"9 V/null mice [5]; lungs, Gaucher cells, not significant",~10%
same,serum anti-GCase IgG signals,"9 V/null mice [6]; 5 or 15 U/kg/wk, each bleed",at background or very low levels
same,injected mice with increased serum anti-GCase IgG,"9 V/null mice [6]; 60 U/kg/wk, by the 4th injection",> 50%
same,increase of serum anti-GCase IgG levels above background,"9 V/null mice [6]; 60 U/kg/wk, by the 4th injection, at ∼3×10^3 dilution",~3 fold
same,Recovery of injected activity in serum,[7]; 5-wk 9 V/null mice,63.06±4.62%
same,serum activity by 20 min post-injection,"[7]; 9 V/null mice, 60 U/kg i.v.",< 10 % of the 2-min values
same,t½ of clearance of GCase activity in serum,"[7]; 9 V/null mice, 60 U/kg i.v.",8 to 11 min
same,Recovery of injected activity in serum,[7]; 20-wk 9 V/null mice,58.16±1.61%
same,catalytic value (CRIM-SA) of intact enzyme remaining in serum by 20 min,[7]; 60 U/kg i.v.,< 10 % of its original catalytic value
same,t½ of GCase CRIM disappearance in serum,"[7]; both age groups, 60 U/kg i.v.",~13 min
same,Total serum IgE levels,9 V/null mice [8],46.4 to 234.9 ng/mL
same,Recovery of injected activity in liver,[9]; [11],57.53±1.35%
same,Recovery of injected activity in lung,[9]; [11],0.1±0.01%
same,Recovery of injected activity in spleen,"[9]; 5-wk 9 V/null mice, peak 40 min",1.86±0.06%
same,drop of liver activity within 40 min,[9]; [12],about 60%
same,liver GCase activity by 42 h,[9]; [12],13–18 % of WT
same,peak spleen activity lower than in 20-wk mice,[9]; [12],2- to 3 fold
same,splenic CRIM-SA,[9]; [12],0.2–0.8×10^6 nmoles/h/mg enzyme protein
same,time liver activity remained at ≥WT level,[9]; [12],70 to 80 min
same,t½ of CRIM levels in spleen,[9]; [12],~120 min
same,t½ of activity disappearance in liver,[9]; [12],about 60 min
same,peak liver activity relative to WT,[9]; [12],~2.5 fold
same,Recovery of injected activity in liver,[9]; [13],60.36±2.01%
same,Recovery of injected activity in lung,[9]; [13],0.04±0.01%
same,Recovery of injected activity in spleen,[9]; [13],2.62±0.08%
same,decrease of liver GCase activity within 40 min,[9]; [14],~30%
same,decrease of spleen enzyme activity by 40 min,[9]; [14],~40%
same,liver GCase activity by 42 h,[9]; [14],13–15 % of WT
same,time liver activity remained at or above WT levels,[9]; [14],3 h
same,time spleen activity remained at ≥WT levels,[9]; [14],~3.5 h
same,t½ of CRIM disappearance in liver,[9]; [14],90 to 110 min
same,t½ of GCase activity disappearance in liver,[9]; [14],~100 min
same,t½ of GCase protein disappearance in spleen,[9]; [14],1.0 to 1.5 h
same,peak liver activity relative to WT,[9]; [14],2.5- to 3.5 fold
same,peak spleen activity relative to WT,"[9]; 20-wk 9 V/null mice, 20 min post-injection, 60 U/kg i.v.",3- to 4.5 fold
same,time liver activity remained at ≥WT level,"[9]; 20-wk 9 V/null mice, as restated",~180 min
same,enzyme recovered in spleens and lungs,"[9]; after bolus i.v. injections, abstract",< 5%
same,injected enzyme recovered from the liver,"[9]; intravenous bolus, discussion",≥ 60%
